# B1: r-Tinagl1: full length recombinant human Tinagl1 with 6×His tag at the C-terminus [SEQ ID NO.: 24], expressed in HEK293T cells (protein, listed as Homo sapiens)
# chain: MWRCPLGLLLLLPLAGHLALGAQQGRGRRELAPGLHLRGIRDAGGRYCQEQDLCCRGRADDCALPYLGAICYCDLFCNRTVSDCCPDFWDFCLGVPPPFPPIQGCMHGGRIYPVLGTYWDNCNRCTCQENRQWQCDQEPCLVDPDMIKAINQGNYGWQAGNHSAFWGMTLDEGIRYRLGTIRPSSSVMNMHEIYTVLNPGEVLPTAFEASEKWPNLIHEPLDQGNCAGSWAFSTAAVASDRVSIHSLGHMTPVLSPQNLLSCDTHQQQGCRGGRLDGAWWFLRRRGVVSDHCYPFSGRERDEAGPAPPCMMHSRAMGRGKRQATAHCPNSYVNNNDIYQVTPVYRLGSNDKEIMKELMENGPVQALMEVHEDFFLYKGGIYSHTPVSLGRPERYRRHGTHSVKITGWGEETLPDGRTLKYWTAANSWGPAWGERGHFRIVRGVNECDIESFVLGVWGRVGMEDMGHHVDHHHHHH
# modifications: C-terminal 6xHis tag
# Tests used:
# EGFR dimerization = biological target: T1, EGFR dimerization (Homo sapiens, UniProt P00533); test: EGFR dimerization in LM2 cells (co-IP of EGFR-GFP/EGFR-Myc; DSS cross-linking); format: cell-based; details: 1 μg/ml r-Tinagl1 1 hr
# T1 construct: host or cells: LM2
# Description: FIG. 14A is an image of WB analyses where LM2 cells were transfected with plasmids to overexpress GFP-EGFR and EGFR-Myc. 48 hr after transfection, the cells were treated with or without 1 μg/ml of r-Tinagl1 for 1 hr, followed by 10 min of 1 ng/ml EGF treatment, then collected and immunoprecipitated with either IgG or anti-Myc antibody, after which the IP samples were subjected to WB analysis.
# FIG. 14B is a graph illustrating the quantified amount of EGFR-GFP that interacts with EGFR-Myc, normalized to PBS treatment group.
# FIG. 14C is an image of WB analyses where LM2 cells stably expressed EGFR-Myc were pretreated with PBS or 1 μg/ml of r-Tinagl1 for 1 hr, treated with 1 ng/ml of EGF for another 10 min, then cells were collected and the dimers were cross-linked with disuccinimidyl suberate (DSS) treatment, followed by WB analysis.
# FIG. 14D is a graph illustrating the ratio of dimerized EGFR in each treatment group that was quantified.
# Whether Tinagl1 prevents EGFR dimerization independent of interfering with EGF binding to EGFR was tested. […] To further validate this conclusion, LM2 cells with EGFR-Myc stably expressed were treated with EGF or r-Tinagl1 alone or combination. […]
# The assay was performed as previously described (Wang et al., 2015). […] Finally, the cells were then lysed with IP lysis buffer for 20 min on ice, and EGFR dimerization was analyzed by WB.
# SUM159-M1a cells = test: Cell adhesion assay of SUM159-M1a cells on coated plates (luciferase); format: cell-based, human
# Description: FIG. 15A is an graph of attached cells quantified by luciferase assay where a 96-well plate was first coated with 10 μg/ml of FN, then SUM159-M1a cells were incubated with 10 μg/ml of indicated antibodies or r-Tinagl1 at 4 C for 30 min, after when cells were seeded on the plate at 30 k cells per well, and 30 min after seeding, the plate was washed with PBS and quantified by luciferase assay.
# Integrin α5β1 and αvβ1 are the major receptors for FN, and the interaction between FN and the integrin receptors triggers the activation of the downstream FAK signal pathway. To test whether Tinagl1 may interfere with cell adhesion mediated by the interaction between FN and its receptors integrin α5β1 and αvβ1, SUM159-M1a cells that were pre-incubated with r-Tinagl1 were seeded on the plates coated with FN or other ECM proteins for various period of time (5 min to 2 hours) and the number of adhered cells were quantified after washing. […] Next, SUM159-M1a cells that were pre-incubated with r-Tiangl1 or various integrin-blocking antibodies were seeded on the plate coated with FN, and relative numbers of attached cells were measured.
# 96-wells were coated with 10 μg/ml of indicated proteins. […] Cells were then lysed, and luciferase activity which represents cell number was measured using the Glomax 96 microplate luminometer (Promega). […]
# [1] = system: primary tumors and lung lesions; test: IHC staining of primary tumors and lung samples for proliferation and apoptosis markers; format: in vivo, mice; details: versus PBS
# Description: FIGS. 7A-7D are graphs indicating the percentage of Ki67^+ (FIGS. 7A and 7B) and cleaved caspase-3^+ (FIGS. 7C, 7D) cells counted in primary tumor (FIGS. 7A, 7C) and spontaneous lung metastasis (FIGS. 7B, 7D) samples from mice treated with r-Tinagl1(711, 721, 731, 741) or PBS (710, 720, 730, 740) collected for H&E and IHC staining with indicated antibodies.
# To address how Tinagl1 inhibits primary tumor growth and metastasis, primary tumors and corresponding lung samples were stained for proliferation and apoptosis markers. […] Consistent results were also observed in the staining of the tissues collected from the mice injected with the SUM159-M1a cells.
# TIC staining was performed as previously described (Wan et al., 2014). Briefly, Paraffin-embedded primary tumor or lung samples were sliced into 4 μm thickness. The slides were baked overnight at 60° C. Next, the tissue slides were washed with PBS after deparaffinization and hydration and then boiled in citrate buffer at 100° C. for 40 min. After treated with 3% H2O2 for 30 min to block endogenous peroxidase, slides were incubated at 4° C. overnight with Ki67 (Leica Biosystem, Ki67-MM1-L-CE-S), cleaved caspase-3 (Cell signaling, 9661S), p-EGFR (Cell signaling, 3777), p-FAK (Cell signaling, 8556), CD31 (Cell signaling, 77699), -SMA (Sigma, A5228), or Tinagl1 (Sigma, HPA048695) antibodies. […]
molecule,measurement,setting,value
B1,amount of EGFR-GFP bound by EGFR-Myc,EGFR dimerization; in the presence of EGF,significantly reduced the amount of EGFR-GFP bound by EGFR-Myc
same,dimer form of EGFR (DSS cross-linking),EGFR dimerization; then EGF,reduced
same,cell adhesion on FN or other ECM proteins,"SUM159-M1a cells; 10 μg/ml r-Tinagl1 pre-incubation, 5 min to 2 hours",blocked cell adhesion mediated by FN but not other ECM proteins
same,cell adhesion on FN (antibody blocking assay),"SUM159-M1a cells; 10 μg/ml, 30 min after seeding",significantly reduced cell adhesion
same,Ki67+ cells,[1],significantly fewer
same,cleaved caspase-3+ apoptotic cells,[1],no difference
